According to patent US5955575A, “Antagonists of G-protein-coupled receptor” (Hopital Sainte-Justine, priority 1997, dated 1999):
No end group written: not given here.

Experiments:
Format in all cases: cell-based
[1] = biological target: T1, FP receptor (Homo sapiens, UniProt P43088); experiment: Phosphoinositide hydrolysis in permeabilized A549 cells loaded with synthetic peptides, stimulated with PGF2α; details: dose-response in permeabilized A549 cells stimulated with PGF2α; FIG. 2B; read-out: half maximal inhibitory concentration
T1 construct: endogenous in cells; host or cells: A549 lung carcinoma cells (ATCC CCL185)
T1 sequence (P43088 whole entry): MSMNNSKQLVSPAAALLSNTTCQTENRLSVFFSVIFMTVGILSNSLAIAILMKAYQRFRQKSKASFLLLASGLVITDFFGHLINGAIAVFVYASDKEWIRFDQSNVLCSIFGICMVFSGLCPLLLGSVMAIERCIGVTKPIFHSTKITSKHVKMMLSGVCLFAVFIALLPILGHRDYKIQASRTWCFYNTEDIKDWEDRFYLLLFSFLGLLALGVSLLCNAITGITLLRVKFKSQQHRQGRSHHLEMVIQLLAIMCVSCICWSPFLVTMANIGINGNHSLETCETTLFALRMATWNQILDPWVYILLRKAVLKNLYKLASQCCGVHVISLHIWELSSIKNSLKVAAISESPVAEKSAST

[2] = biological target: T1, FP receptor; experiment: Phosphoinositide hydrolysis in A549 cells stably expressing the peptides, stimulated with PGF2α; details: peptide stably expressed intracellularly in A549 cells; 1 μM PGF2α for 30 min; n=3; FIG. 1A
Experimental: (§1) A549 lung carcinoma cells (ATCC Accession No.: CCL185, American Type Culture Collection, Rockville, Md. 20852) were cultured in Dulbecco's modified Eagles medium (DMEM) with 10% fetal bovine serum (FBS) and antibiotics, penicillin (10 U/ml) and streptomycin (10 μg/ml) in a humidified atmosphere containing 5% CO2 at 37° C. The cells were trypsinized and plated in 6-well tissue culture dishes at 2×10^5 cells/well, a day before commencing the experiments.
(§2) The expression plasmids carrying the third (PCP-1) and the fourth (PCP-2) intracellular domains were introduced into A549 cells using Transfectamine lipid (GIBCO Life Technologies, Burlington, ON). Three (3) micrograms of DNA and 16 μg of lipid were mixed in 200 μl of water and incubated at room temperature for 45 min. Then, the lipid-DNA complexes were diluted with 0.8 ml of Opti-MEM™ (GIBCO Life Technologies, Burlington, ON). The cells were washed twice with Hank's Balanced Salt Solution and incubated with lipid-DNA complexes for 6 hours. An equal volume of DMEM with 20% FBS was added and the cells were kept in the incubator overnight. On the next day, the medium was replaced with DMEM containing 10% FBS and antibiotics and incubated for another 24 hours. […]

[3] = biological target: T2, EP1 (Homo sapiens, UniProt P34995); experiment: Phosphoinositide hydrolysis in A549 cells stably expressing the peptides, stimulated with PGE2 (specificity); details: peptide stably expressed intracellularly in A549 cells; 1 μM PGE2 for 30 min; FIG. 1B
T2 construct: a related prostaglandin receptor expressed in these cells; endogenous in cells; host or cells: A549 lung carcinoma cells (ATCC CCL185)
T2 sequence (P34995 1-402): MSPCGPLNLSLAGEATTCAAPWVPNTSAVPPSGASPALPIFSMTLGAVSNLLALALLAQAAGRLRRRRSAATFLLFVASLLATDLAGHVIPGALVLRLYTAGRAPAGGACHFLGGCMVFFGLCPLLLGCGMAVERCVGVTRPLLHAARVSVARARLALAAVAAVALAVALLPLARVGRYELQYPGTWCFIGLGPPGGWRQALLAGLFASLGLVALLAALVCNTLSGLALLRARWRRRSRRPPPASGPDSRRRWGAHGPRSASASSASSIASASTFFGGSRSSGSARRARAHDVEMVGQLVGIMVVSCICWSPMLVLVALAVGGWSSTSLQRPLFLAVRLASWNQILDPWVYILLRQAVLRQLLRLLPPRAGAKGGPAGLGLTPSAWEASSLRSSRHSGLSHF
Experimental: as §1, §2

Row | IC50 [1] | ligand-stimulated phosphoinositide hydrolysis (fold stimulation over unstimulated controls) [2] | inositol phosphate generation by EP1 receptor [3] | Substance
1 | 50 µM | – | – | KDTILQLNLKEYNLV-NH2 [PCP-4, KDTILQLNLK EYNLV-NH2]
2 | – | inhibited | did not affect | RVKFKSQQHR QGRSHHLEM (RVKFKSQQHRQGRSHHLEM) [PCP-1]
3 | – | inhibited | did not affect | RKAVLKNLYKLASQCCGVHVISLHIWELSSIKNSLKVAAISESPVAEKSAST (RKAVLKNLYKLASQCCGVHVISLHIWELSSIKNSLKVAAISESPVAEKSAST) [PCP-2]
